Reference: patent US20230090014A1 (NANJING SANHOME PHARMACEUTICAL, published 2023)

Tests used:
Human CD47-His protein [1] = target: T1, Human CD47-His protein (human, UniProt Q08722 19-136); assay: ELISA of hybridoma supernatant, binding activity to CD47
[2] = target: T2, CD47 on the surface of CHO-K1-E5 cells (human, UniProt Q08722 19-323); assay: FACS blocking assay on CHO-K1-E5 cells; blocked ligand SIRPα-Biotin, PE streptavidin
T2 construct: Full length CD47 expressed from pTargeT-CD47 in CHO-K1 cells; also called CD47 on cell surface; CHO-K1-hCD47

[3] = target: T2, CD47 on the surface of CHO-K1-E5 cells; assay: cell based ELISA on fixed CHO-K1-E5 cells, anti-human IgG HRP, OD450
Cynomolgus CD47-His = target: T3, Cynomolgus CD47-His (cynomolgus, UniProt A0A2K5X523 19-139); assay: ELISA on coated cynomolgus CD47-His, anti-human IgG HRP, OD450
T3 construct: Bought protein; also called monkey CD47

CD47(19-136)-hFc = target: T4, CD47(19-136)-hFc (human, biotin-labelled in the Octet assay of Example 8 (sites not given)); assay: BLI (Fortebio Octet RED96), biotinylated CD47-hFc on SA sensor, antibody in solution
T4 construct: tied by name; also called CD47-hFc; CD47-hFc-Biotin
T4 sequence (chain, as listed by the source limits assumed): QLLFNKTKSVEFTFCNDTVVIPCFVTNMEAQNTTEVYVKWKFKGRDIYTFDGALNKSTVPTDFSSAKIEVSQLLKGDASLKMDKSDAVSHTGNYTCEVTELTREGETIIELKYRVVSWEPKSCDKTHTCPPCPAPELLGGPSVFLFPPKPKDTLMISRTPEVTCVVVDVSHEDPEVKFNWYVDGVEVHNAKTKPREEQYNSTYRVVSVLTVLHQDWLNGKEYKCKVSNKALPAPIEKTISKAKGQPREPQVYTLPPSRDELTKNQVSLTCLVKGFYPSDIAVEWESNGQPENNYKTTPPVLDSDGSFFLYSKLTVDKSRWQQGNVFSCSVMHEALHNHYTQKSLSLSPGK

Human CD47-His protein [4] = target: T1, Human CD47-His protein; assay: ELISA on coated human CD47-His, anti-human IgG HRP, OD450
[5] = target: T2, CD47 on the surface of CHO-K1-E5 cells; assay: competition FACS on CHO-K1-hCD47 cells, SIRPα-biotin as competitor
Human CD47-His protein [6] = target: T1, Human CD47-His protein; assay: ELISA, human CD47-His coated
[7] = target: T2, CD47 on the surface of CHO-K1-E5 cells; assay: FACS on CHO-K1-hCD47 cells, PE anti-human IgG
Human CD47-His protein [8] = target: T1, Human CD47-His protein; assay: competition ELISA: CD47-His coated, SIRPα-biotin as competitor
Human PD-L1-His protein = Human PD-L1-His protein (human, UniProt Q9NZQ7 19-238, limits assumed); assay: ELISA on coated human PD-L1-His, HRP anti-human IgG, OD450
Chain of Human PD-L1-His protein (Q9NZQ7 19-238 limits assumed): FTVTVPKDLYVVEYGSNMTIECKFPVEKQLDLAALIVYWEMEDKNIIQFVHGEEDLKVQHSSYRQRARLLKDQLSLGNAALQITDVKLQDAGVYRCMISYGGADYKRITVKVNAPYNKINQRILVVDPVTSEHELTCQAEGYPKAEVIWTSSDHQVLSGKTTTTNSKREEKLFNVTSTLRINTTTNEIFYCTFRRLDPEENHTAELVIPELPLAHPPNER

[9] = target: T2, CD47 on the surface of CHO-K1-E5 cells; assay: FACS on CHO-K1-hCD47 cells
Human CD47-His protein [10] = target: T1, Human CD47-His protein; assay: ELISA on coated human CD47-His, HRP anti-human IgG, OD450
[11] = target: T5, hPD-L1 on the surface of CHO-K1-hPD-L1 and Raji-hPD-L1 cells (human, UniProt Q9NZQ7 19-238); assay: FACS on CHO-K1-hPD-L1 cells, PE anti-human IgG
T5 construct: also called CHO-K1-PD-L1; human PD-L1 on cell surface
T5 sequence (Q9NZQ7 19-238): as the sequence (Q9NZQ7 19-238 limits assumed) above

PD-L1-mFc = PD-L1-mFc (UniProt Q9NZQ7 19-238, limits assumed); assay: competition ELISA on coated CD80-hFc; antibody mixed with PD-L1-mFc, bound PD-L1-mFc detected with anti-mouse IgG HRP, OD450; parameters: unit not given here
Chain of PD-L1-mFc (Q9NZQ7 19-238 limits assumed): as above

[12] = target: T2, CD47 on the surface of CHO-K1-E5 cells; assay: FACS blocking assay on CHO-K1-hCD47 cells; blocked ligand SIRPα-biotin, PE-SA
[13] = target: T5, hPD-L1 on the surface of CHO-K1-hPD-L1 …; assay: FACS blocking assay on CHO-K1-hPD-L1 cells; blocked ligand PD-1-mFc (1 µg/mL), PE anti-mouse IgG
Human PD-L1-hFC protein = Human PD-L1-hFC protein (human, UniProt Q9NZQ7 19-238, limits assumed); assay: competition ELISA on coated PD-L1-hFc; blocked ligand PD-1-mFc (1 µg/mL), anti-mouse IgG HRP, OD450
Chain of Human PD-L1-hFC protein (Q9NZQ7 19-238 limits assumed): as above

Binder	binding result (Human CD47-His protein [1])	IC50 (read off the curve) [2] [nM]	EC50 (read off the curve) [3] [nM]	EC50 (read off the curve) (Cynomolgus CD47-His) [nM]	Kd (CD47(19-136)-hFc) [nM]	koff (CD47(19-136)-hFc) [s⁻¹]	kon (CD47(19-136)-hFc) [M⁻¹ s⁻¹]	EC50 (read off the curve) (Human CD47-His protein [4]) [nM]	further results
Hu58A-14-PE (antibody, IgG4, V domains shown, also called humanized anti-CD47 antibody Hu58A-14-PE) VH: EVQLLESGGGLVQPGGSLRLSCAASGFIFSRFGMAWVRQTPDKRLEWVATISSGGSYTYYPDSVKGRLTISRDNAKTTLYLQMRSLKSEDTAMYYCARQGLLDYLYALDYWGQGTAVTVSS VL: DIQMTQSPSSVSASIGDRVTITCKASQDINSFLAWFQQKPGKSPRPLIYRAYRLVDGVPSRFSGVGSGQDYSLTISSLDYEDLGIYYCQQYVEFPPTFGAGTMLELK		~5	~0.1	~0.1	0.0946	0.000168	1.78e+06	~0.08	
AB6.12-IgG4P (antibody, V domains shown, Anti-CD47 control antibody from WO2013/119714; also called AB06.12-4P; AB06.12-P) VH: QMQLVQSGAEVKKTGSSVKVSCKASGFNIKDYYLHWVRQAPGQALEWMGWIDPDQGDTEYAQKFQDRVTITRDRSMSTAYMELSSLRSEDTAMYYCNAAYGSSSYPMDYWGQGTTVTVSS VL: NIQMTQSPSAMSASVGDRVTITCKASQDIHRYLSWFQQKPGKVPKHLIYRANRLVSGVPSRFSGSGSGTEFTLTISSLQPEDFATYYCLQYDEFPYTFGGGTKVEIKR		~1	~0.1	~0.1	0.101	0.000485	4.8e+06	~0.08	
Hu26T-31-PE (antibody, IgG4, V domains shown, also called humanized anti-CD47 antibody Hu26T-31-PE) VH: QVQLVQSGAEVKKPGASVKVSCKASGYTFTDYYMNWVRQAPGQGLEWIGRIYPGSGLTYYNAKFKGRATVTADKSTSTVYMELSSLRSEDTAVYYCARTSYGSSFPHVWGQGTTVTVSS VL: DIQMTQSPSSLSASVGDRVTITCKSSQSLLNVNDQKNYLAWYQQKPGKAPKLLIYFASTRESGVPSRFSGSGSGTDFTLTISSLQPEDFATYYCQQHYSTPLTFGQGTKLEIK		~1	~0.1	~0.1	0.0587	6.13e-05	1.04e+06	~0.1	
ScFab (HuPL7-21Ks/Hu34-39Hs) (bispecific antibody, also called BiAb; Bi Ab) chain 1: not shown chain 2: EIVLTQSPGTLSLSPGERATLSCRASSSVSSSYLNWYQQKSGASPKLWIYSTSNLASGVPGRFSGSGSGTSYSLTISSVEAEDAATYYCQQYSGYPLTFGAGTKLEVKRTVAAPSVFIFPPSDEQLKSGTASVVCLLNNFYPREAKVQWKVDNALQSGNSQESVTEQDSKDSTYSLSSTLTLSKADYEKHKVYACEVTHQGLSSPVTKSFNRGECGGGGSGGGGSGGGGSGGGGSGGGGSGGGGSQVQLQESGPGLVKPSQTLSLTCKASGYTFTNYWITWVKQRPGQGLEWIGDITPGRGETNYNQKFKGRVTLTVDISASTAYMELSSLRSEDTAVYYCSRWGLRRGDYWGQGTSVTVSSASTKGPSVFPLAPCSRSTSESTAALGCLVKDYFPEPVTVSWNSGALTSGVHTFPAVLQSSGLYSLSSVVTVPSSSLGTKTYTCNVDHKPSNTKVDKRVESKYGPPCPPCPAPEFEGGPSVFLFPPKPKDTLMISRTPEVTCVVVDVSQEDPEVQFNWYVDGVEVHNAKTKPREEQFNSTYRVVSVLTVLHQDWLNGKEYKCKVSNKGLPSSIEKTISKAKGQPREPQVCTLPPSQEEMTKNQVSLSCAVKGFYPSDIAVEWESNGQPENNYKTTPPVLDSDGSFFLVSRLTVDKSRWQEGNVFSCSVMHEALHNHYTQKSLSLSLGK									fold increase of IC50 against Hu34-39-PE [5]: 3 times; fold increase of binding EC50 against Hu34-39-PE (Human CD47-His protein [6]): 40 fold; EC50 (read off the curve) [7]: ~10 nM; fold increase of IC50 against Hu34-39-PE (Human CD47-His protein [8]): ~40 times; EC50 (read off the curve) (Human PD-L1-His protein): ~200 nM; fold decrease of Emax against Hu34-39-PE [9]: ~2 times; fold increase of EC50 against Hu34-39-PE [9]: ~4 times; EC50 (read off the curve) (Human CD47-His protein [10]): ~2000 nM; EC50 (read off the curve) [11]: ~2 nM; IC50 (read off the curve) (PD-L1-mFc): ~10; IC50 (read off the curve) [12]: ~8 nM; IC50 (read off the curve) [13]: ~3 nM; IC50 (read off the curve) (Human PD-L1-hFC protein): ~1000 nM
ScFab (HuPL16-42Ks/Hu34-39Hs) (bispecific antibody) chain 1: not shown chain 2: EIVLTQSPGTLSLSPGERATLSCRASSSVSSSYLNWYQQKSGASPKLWIYSTSNLASGVPGRFSGSGSGTSYSLTISSVEAEDAATYYCQQYSGYPLTFGAGTKLEVKRTVAAPSVFIFPPSDEQLKSGTASVVCLLNNFYPREAKVQWKVDNALQSGNSQESVTEQDSKDSTYSLSSTLTLSKADYEKHKVYACEVTHQGLSSPVTKSFNRGECGGGGSGGGGSGGGGSGGGGSGGGGSGGGGSQVQLQESGPGLVKPSQTLSLTCKASGYTFTNYWITWVKQRPGQGLEWIGDITPGRGETNYNQKFKGRVTLTVDISASTAYMELSSLRSEDTAVYYCSRWGLRRGDYWGQGTSVTVSSASTKGPSVFPLAPCSRSTSESTAALGCLVKDYFPEPVTVSWNSGALTSGVHTFPAVLQSSGLYSLSSVVTVPSSSLGTKTYTCNVDHKPSNTKVDKRVESKYGPPCPPCPAPEFEGGPSVFLFPPKPKDTLMISRTPEVTCVVVDVSQEDPEVQFNWYVDGVEVHNAKTKPREEQFNSTYRVVSVLTVLHQDWLNGKEYKCKVSNKGLPSSIEKTISKAKGQPREPQVCTLPPSQEEMTKNQVSLSCAVKGFYPSDIAVEWESNGQPENNYKTTPPVLDSDGSFFLVSRLTVDKSRWQEGNVFSCSVMHEALHNHYTQKSLSLSLGK									fold increase of IC50 against Hu34-39-PE [5]: 3 times; fold increase of binding EC50 against Hu34-39-PE (Human CD47-His protein [6]): ~40 times; EC50 (read off the curve) [7]: ~10 nM; fold increase of IC50 against Hu34-39-PE (Human CD47-His protein [8]): ~40 times; fold decrease of Emax against Hu34-39-PE [9]: ~2 times; fold increase of EC50 against Hu34-39-PE [9]: ~4 times; EC50 (read off the curve) (Human CD47-His protein [10]): ~2000 nM; EC50 (read off the curve) [11]: ~2 nM; IC50 (read off the curve) [12]: ~5 nM; IC50 (read off the curve) [13]: ~5 nM

The next lines start with results.

binding result (Human CD47-His protein [1])	IC50 (read off the curve) [2] [nM]	EC50 (read off the curve) [3] [nM]	EC50 (read off the curve) (Cynomolgus CD47-His) [nM]	Kd (CD47(19-136)-hFc) [nM]	koff (CD47(19-136)-hFc) [s⁻¹]	kon (CD47(19-136)-hFc) [M⁻¹ s⁻¹]	EC50 (read off the curve) (Human CD47-His protein [4]) [nM]	Binder	further results
binds								SHC025-26 (antibody, IgG1, V domains shown, tested as culture supernatant) VH: QVQLKQSGAELVRPGASVKLSCKASGYIFTDYYMNWVKQRPGQGLEWIARIYPGSGLTYYNAKFKGKATVTAEKSSSTAYMQLSSLTSEDSAVYFCARCSYGSSFPHVWGTGTTVTVSS VL: not shown	
binds								SHC025-58 (antibody, IgG2b, V domains shown, tested as culture supernatant) VH: EVQLVESGGDLVEPGGSLKLSCAASGFIFSRFGMAWVRQTPDKRLEWVATISSGGSYTYYPDSVKGRLTISRDNAKTTLYLQMRSLKSEDTAMYYCARQGLLDYLYALDYWGQGTAVTVSS VL: DIKMIQSPSSMYAGLGERVTFNCKASQDINSFLCWFQQKPGKSPRPLIYRAYRLVDGVPSRFSGVGSGQDYSLTISSLDYEDLGIYYCQQYVEFPPTFGAGTMLELK	
binds								SHC025-34 (antibody, IgG2c, V domains shown, tested as culture supernatant) VH: QVQLQQPGAELVKPGASVKMSCKASGYTFTNYWITWVKQRPGQGLEWIGDITPGRGETNYNEKFKSKATLTVDTSSSTAYMQLTSLTSEDSAVYYCSRWGLRRGDYWGQGTSVTVSS VL: ENVLTQSPAIMSASPGEKVTMTCRASSSVSSSYLNWYQQKSGASPKLWIYSTSNLASGVPGRFSGSGSGTSYSLTISSVEAEDAATYYCQQYSGYPLTFGAGTKLEVK	
